The target of test [1] is rat LH receptor (rat) (UniProt P16235).
For test [2], the target named is human FSH receptor (human) (UniProt P23945).
The target in test [3] is rat LH receptor (rat) (UniProt P16235). This is another data set of the same source.
The target is the same in test [4]. The source holds these as a separate data set.

A value given as a limit tells only on which side of the number the result lay.

In the case of “dgα37-β33CFC (dg-αY37C/CFC101-114βI33C) (from UniProt P01215) (ligand)”, the efficacy in cyclic AMP assays is < 10 % of hCG in the test with rat LH receptor (rat) [1] and < 4 % of hFSH in test [2].
For “dgα37-β33CF (dg-αY37C/CF101-109βI33C) (from UniProt P01215) (ligand)” the same measures were < 10 % of hCG and < 4 % of hFSH.
As for “dghCG (hCG lacking the α-subunit loop 2 oligosaccharide) (from UniProt P01215) (ligand)”, the cyclic AMP accumulation with rat LH receptor (rat) [3] was 40 % of hCG. In the test with rat LH receptor (rat) [4], this substance showed an Efficacy, cyclic AMP accumulation of 42%.
Take “dgα37-β33 (dg-αY37C/hCGβI33C) (from UniProt P01215) (ligand)”: the Efficacy, cyclic AMP accumulation with rat LH receptor (rat) [4] worked out at 24%.

The record behind these values is patent US20060040855A1.
